Experimental data taken from patent US20230038638A1, “COMPLEMENT FACTOR I-RELATED COMPOSITIONS AND METHODS” (published 2023).
Values joined by “and” are separate entries in the source; they are usually repeats but may differ in a detail not shown here. Equal values may be shown once.

Columns and labels:
human C4b (human) = target: T1, human C4b (human) (UniProt P0C0L4)
T1 sequence: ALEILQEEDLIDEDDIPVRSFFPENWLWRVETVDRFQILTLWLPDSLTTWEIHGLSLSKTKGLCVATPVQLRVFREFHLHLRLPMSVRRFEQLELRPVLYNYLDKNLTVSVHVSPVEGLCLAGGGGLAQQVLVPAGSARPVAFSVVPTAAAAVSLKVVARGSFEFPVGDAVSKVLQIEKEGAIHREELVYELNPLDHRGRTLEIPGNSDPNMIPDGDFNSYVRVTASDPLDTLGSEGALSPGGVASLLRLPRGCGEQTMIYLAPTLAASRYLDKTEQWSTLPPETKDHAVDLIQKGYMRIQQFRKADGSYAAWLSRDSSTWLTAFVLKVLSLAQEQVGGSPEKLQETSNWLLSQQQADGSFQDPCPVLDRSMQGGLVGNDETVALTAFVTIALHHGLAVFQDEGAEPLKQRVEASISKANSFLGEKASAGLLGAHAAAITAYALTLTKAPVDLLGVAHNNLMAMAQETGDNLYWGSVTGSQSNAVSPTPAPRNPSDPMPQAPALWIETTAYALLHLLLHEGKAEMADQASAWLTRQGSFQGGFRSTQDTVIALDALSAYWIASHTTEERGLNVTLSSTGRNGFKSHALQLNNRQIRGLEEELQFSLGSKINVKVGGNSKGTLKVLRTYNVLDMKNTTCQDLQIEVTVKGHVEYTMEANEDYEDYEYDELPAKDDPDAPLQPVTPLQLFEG

[1] = target: soluble human C3b (human) (UniProt P01024)

Substance | C4b Screen Ref Fold (fold of CFI-HSA wild type) (human C4b (human)) | iC3b Screen Ref Fold (fold of CFI-HSA wild type) [1] | C4b Screen Ref Fold (fold of reference) (human C4b (human)) | iC3b Screen Ref Fold (fold of reference) [1]
CFI-HSA S507A; GGSSGG (SEQ ID NO: 6); CCP_1-4 (enzyme) | 0.43 | 0 | – | –
CFI-HSA variant E461F (enzyme) | – | – | 2.62 | 0.95
CFI-HSA variant N531T (enzyme) | – | – | 0.31 | 0.19
CFI-HSA variant G344K; Y408L; N531G (enzyme) | – | – | 1.2 | 0.93
CFI-HSA D425S (enzyme) | 1.13 | 2.21 | – | –
CFI-HSA T407G; N531G (enzyme) | 0.83 | 0.85 | – | –
CFI-HSA K534H (enzyme) | 1.9 | 1.79 | – | –
CFI-HSA D506W (enzyme) | 0.01 | 0.03 | – | –
CFI-HSA P535L (enzyme) | 0.27 | 0.53 | – | –
CFI-HSA variant N531W (enzyme) | – | – | 0.95 | 0.29
CFI-HSA P535N (enzyme) | 0.33 | 0.08 | – | –
CFI-HSA variant E530F; P558S (enzyme) | 0.34 and 0.16 | 1.4 and 1.38 | – | –
CFI-HSA K534N (enzyme) | 3.36 | 0.88 | – | –
CFI-HSA K534I (enzyme) | 3.03 | 0.83 | – | –
CFI-HSA variant Y408M; K504R (enzyme) | 0.09 | 0.83 | – | –
CFI-HSA variant D425K; Y408M; F537K; K504R; P558S (enzyme) | 0.08 | 1.49 | – | –
CFI-HSA variant N531R (enzyme) | – | – | 0.58 | 0.75
CFI-HSA variant T346H (enzyme) | – | – | 1.81 | 0.67
CFI-HSA K534D (enzyme) | 2.29 | 0.72 | – | –
CFI-HSA D425T (enzyme) | 2.05 | 2.16 | – | –
CFI-HSA variant W381G; V390G (enzyme) | – | – | 0.04 | -0.01
CFI-HSA F464P (enzyme) | 0.15 | -0.01 | – | –

Substance | C4b Screen Ref Fold (fold of CFI-HSA wild type) (human C4b (human)) | iC3b Screen Ref Fold (fold of CFI-HSA wild type) [1] | C4b Screen Ref Fold (fold of reference) (human C4b (human)) | iC3b Screen Ref Fold (fold of reference) [1]
CFI-HSA D506K (enzyme) | 0.3 | 0.03 | – | –
CFI-HSA variant Q373G (enzyme) | 0 | 0.02 | – | –
CFI-HSA Y408L; E461Q; R462K; F464Y (enzyme) | 2.43 | 0.74 | – | –
CFI-HSA Y408L; N531G; R462K (enzyme) | 3.76 | 1.13 | – | –
CFI-HSA fusion WT; GGSSGG (SEQ ID NO: 6); CR1(ccp15); CR1(ccp16); fH(ccp3); fH(ccp4) (from UniProt P17927) (enzyme) | – | – | 0.25 | -0.01
CFI-HSA Y408L; E457G; E461Q; F464Y (enzyme) | 5.88 | 1.45 | – | –
CFI-HSA F537Y (enzyme) | 1.64 | 1.03 | – | –
CFI-HSA-FH_CCP1-4 fusion, Y408L; N531G; E457G; E461Q; R462K; F464Y; GGSSGG (SEQ ID NO: 6); CCP_1-4 (enzyme) | – | – | 1.28 | 0.04
CFI-HSA variant G344R (enzyme) | – | – | 0.74 | 0.56
CFI-HSA variant R557A; N531M; Y403F; K504Y; E457N; E461V (enzyme) | 3.2 | 0.36 | – | –
CFI-HSA variant W375G (enzyme) | 0.08 | -0.03 | – | –
CFI-HSA variant R388G (enzyme) | 0.18 | 0.22 | – | –
CFI-HSA variant R462G (enzyme) | 0.25 | 0 | – | –
CFI-HSA N531G; E461Q; R462K; F464Y (enzyme) | 6.37 | 1.54 | – | –
CFI-HSA Y408L; N531G; F464Y (enzyme) | 5.93 | 1 | – | –
CFI-HSA N531G; E457G; R462K; F464Y (enzyme) | 6.38 | 1.32 | – | –
CFI-HSA N531G; F464Y (enzyme) | 6.48 | 1.47 | – | –
CFI-HSA Y408L; E457G; R462K; F464Y (enzyme) | 5.5 | 0.89 | – | –
CFI-HSA variant Q409G (enzyme) | – | – | 0.36 | 0.33
CFI-HSA L307A (enzyme) | 4.05 | 0.73 | – | –
CFI-HSA D506T (enzyme) | 0.39 | 0.04 | – | –
CFI-HSA variant I389G (enzyme) | 0 | -0.03 | – | –

Substance | C4b Screen Ref Fold (fold of CFI-HSA wild type) (human C4b (human)) | iC3b Screen Ref Fold (fold of CFI-HSA wild type) [1] | C4b Screen Ref Fold (fold of reference) (human C4b (human)) | iC3b Screen Ref Fold (fold of reference) [1]
CFI-HSA variant K340G (enzyme) | – | – | 0.15 | -0.01
CFI-HSA-FH_CCP1-4 fusion, Y408L; N531G; GGSSGG (SEQ ID NO: 6); CCP_1-4 (enzyme) | – | – | 1.4 | 0.05
CFI-HSA variant D425K; F537K (enzyme) | 0.22 | 2.11 | – | –
CFI-HSA F208Y; F246Y; F480Y; F537Y (enzyme) | 0.42 | 1.45 | – | –
CFI-HSA E461Q; F464Y (enzyme) | 6.36 | 1.11 | – | –
CFI-HSA Y408L; F464Y (enzyme) | 0.67 | 0.55 | – | –
CFI-HSA K534Y (enzyme) | 1.39 | 1.42 | – | –
CFI-HSA variant T377G; Y408M; N422K; E457G; E461Q; E530F; N531G (enzyme) | 2.93 | 1.15 | – | –
CFI-HSA F464I (enzyme) | 0.09 | 0.01 | – | –
CFI-HSA variant Y408M; E530F (enzyme) | 0.11 | 0.95 | – | –
CFI-HSA variant N476Q; N518Q (enzyme) | 0.15 | 1.28 | – | –
CFI-HSA E457G; R462K; F464Y (enzyme) | 4.82 | 0.96 | – | –
CFI-HSA variant N531I (enzyme) | – | – | 0.36 | 0.24
CFI-HSA variant F537K; K504R (enzyme) | 0.11 | 1.06 | – | –
CFI-HSA D425H (enzyme) | 1.79 | 1.75 | – | –
CFI-HSA P535H (enzyme) | 0.22 | 0.42 | – | –
CFI-HSA variant I391G (enzyme) | 0.03 | 0.01 | – | –
CFI-HSA T407G (enzyme) | 0.11 | 0.59 | – | –
CFI-HSA variant W381A; ΔP384 (enzyme) | – | – | -0.05 | 0.01
CFI-HSA H362T; V463S; R456I; D459W; S343R (enzyme) | 0.26 | 0 | – | –
CFI-HSA Y408L; E461Q; F464Y (enzyme) | 4.83 | 1.51 | – | –
CFI-HSA variant V390G (enzyme) | – | – | 0.5 | 0.35
